This is an account of results in patent US20220010003A1 (Boehringer Ingelheim, published 2022).

Positions count from the first letter of the chain named. Bounds are passed on as bounds.

The target in test [1] is T1, recombinant human periostin (human, UniProt Q15063 22-836).
T1 construct: also called HuPOSTN; POSTN
T1 sequence: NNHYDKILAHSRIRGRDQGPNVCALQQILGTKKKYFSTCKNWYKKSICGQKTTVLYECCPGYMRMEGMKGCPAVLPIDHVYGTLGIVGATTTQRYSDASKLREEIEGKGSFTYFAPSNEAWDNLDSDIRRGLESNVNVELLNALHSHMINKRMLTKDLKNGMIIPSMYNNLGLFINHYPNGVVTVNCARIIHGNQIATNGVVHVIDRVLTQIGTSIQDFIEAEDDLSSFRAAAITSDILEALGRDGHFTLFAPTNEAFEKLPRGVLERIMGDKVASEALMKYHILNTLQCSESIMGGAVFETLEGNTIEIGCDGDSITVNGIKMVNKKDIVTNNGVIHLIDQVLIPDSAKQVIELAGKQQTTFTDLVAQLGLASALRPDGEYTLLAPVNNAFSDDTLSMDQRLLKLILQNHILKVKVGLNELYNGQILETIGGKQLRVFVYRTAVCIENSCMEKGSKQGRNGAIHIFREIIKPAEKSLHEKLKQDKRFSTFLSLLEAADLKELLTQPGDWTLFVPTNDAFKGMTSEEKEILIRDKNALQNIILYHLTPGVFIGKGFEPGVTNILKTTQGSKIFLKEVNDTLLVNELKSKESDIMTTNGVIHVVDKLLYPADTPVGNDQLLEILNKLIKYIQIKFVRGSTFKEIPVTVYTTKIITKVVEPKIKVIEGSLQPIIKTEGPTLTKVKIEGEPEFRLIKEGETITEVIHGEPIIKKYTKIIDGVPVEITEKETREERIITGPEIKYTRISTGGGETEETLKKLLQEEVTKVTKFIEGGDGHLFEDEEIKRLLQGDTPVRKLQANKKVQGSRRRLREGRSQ
Briefly: binding ELISA, periostin coated.

Test [2] has as its target T2, recombinant mouse periostin (mouse, UniProt Q62009-2 24-811, limits assumed).
T2 construct: also called MoPOSTN
T2 sequence (looked up): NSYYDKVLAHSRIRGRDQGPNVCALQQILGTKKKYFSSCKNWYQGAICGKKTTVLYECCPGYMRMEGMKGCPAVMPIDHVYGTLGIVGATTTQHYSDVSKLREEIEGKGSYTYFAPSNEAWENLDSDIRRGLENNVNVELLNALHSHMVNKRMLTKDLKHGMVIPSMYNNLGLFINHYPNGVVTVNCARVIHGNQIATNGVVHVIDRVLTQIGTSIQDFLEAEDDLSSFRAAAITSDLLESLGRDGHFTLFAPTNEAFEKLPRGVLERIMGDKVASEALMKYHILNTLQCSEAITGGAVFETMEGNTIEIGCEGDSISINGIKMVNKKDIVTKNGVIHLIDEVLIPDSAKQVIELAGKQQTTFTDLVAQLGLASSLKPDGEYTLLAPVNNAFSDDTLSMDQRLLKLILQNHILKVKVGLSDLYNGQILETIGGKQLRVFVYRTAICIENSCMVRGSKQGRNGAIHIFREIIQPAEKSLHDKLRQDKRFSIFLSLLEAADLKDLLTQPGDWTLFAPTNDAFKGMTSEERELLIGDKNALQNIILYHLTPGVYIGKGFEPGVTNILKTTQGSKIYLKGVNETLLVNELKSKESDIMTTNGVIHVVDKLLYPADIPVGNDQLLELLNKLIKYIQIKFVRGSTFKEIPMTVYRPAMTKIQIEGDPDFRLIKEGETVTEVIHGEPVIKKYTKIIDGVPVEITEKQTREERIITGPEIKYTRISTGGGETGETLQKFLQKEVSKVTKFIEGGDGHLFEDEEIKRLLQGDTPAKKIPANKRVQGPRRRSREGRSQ
Briefly: binding ELISA, periostin coated.

The target in the next test is T3, NB1246 (V295A) (human, UniProt Q15063 22-631, limits assumed).
T3 construct: also called POSTN EMI-FAS4 V295A
T3 sequence: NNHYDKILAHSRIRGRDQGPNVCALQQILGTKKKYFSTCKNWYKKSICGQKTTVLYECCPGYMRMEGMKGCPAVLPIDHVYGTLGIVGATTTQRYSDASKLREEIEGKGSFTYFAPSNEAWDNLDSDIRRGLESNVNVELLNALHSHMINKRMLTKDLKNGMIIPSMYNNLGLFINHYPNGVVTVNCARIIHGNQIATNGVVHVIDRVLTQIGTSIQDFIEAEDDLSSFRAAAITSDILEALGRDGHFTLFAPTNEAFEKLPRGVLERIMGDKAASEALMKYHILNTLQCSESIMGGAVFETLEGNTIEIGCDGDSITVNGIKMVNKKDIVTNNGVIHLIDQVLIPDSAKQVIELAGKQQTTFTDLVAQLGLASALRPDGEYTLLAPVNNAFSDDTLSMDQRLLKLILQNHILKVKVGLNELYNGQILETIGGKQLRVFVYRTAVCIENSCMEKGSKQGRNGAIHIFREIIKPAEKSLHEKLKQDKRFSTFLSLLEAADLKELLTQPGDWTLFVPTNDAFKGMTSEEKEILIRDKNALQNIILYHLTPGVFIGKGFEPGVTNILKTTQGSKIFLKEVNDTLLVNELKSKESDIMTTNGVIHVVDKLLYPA
Briefly: ELISA on alanine variants of POSTN EMI-FAS4, second screen.

In the next test the target is T4, NB1202 (N276A) (human, UniProt Q15063 22-631, limits assumed).
T4 construct: also called POSTN EMI-FAS4 N276A
T4 sequence: T3 sequence with N255A, A274V
Described as above.

B1: NB0828 (antibody, V domains shown)
VH: QVQLVQSGAEVKKPGASVKVSCKASGYTFTSYGISWVRQAPGQGLEWMGWISAYNGNTNYAQKLQGRVTMTTDTSTSTAYMELRSLRSDDTAVYYCARDMLVVPFDYWGQGTLVTVSS
VL: QSVLTQSSSASGTPGQTVTVSCSGSSSDIGSNRVNWYQQLPGTAPKLLIYSNDQRPSGVPDRFSGSKSGTSASLAISGLQSADEADYYCAAWDDSLSTYVFGSGTKVTVL
Consider B1, for which the figures for the concentration giving a half-maximal response (EC50) in test [1] and in test [2] were 0.12 nM and 0.15 nM, respectively. The “loss from the max signal” value in the test with NB1246 (V295A) and in the test with NB1202 (N276A) was more than 50% throughout.
